± gives the standard deviation of the averaged measurements.
B1: library; a variant is named by its letters at N, in order (parent)
chain: ACATTTGTTGATACAACCATAAAATGATAATTACACCCATAAATTGATAATTATCACACCCANNNNNNNNNNNNNNCTCTGATCATAGTCAGACCAACATTGCTACGACCCGTATTCGCACCGACAC

Experiments:
[1] = variants of: B1; assay: relative integration efficiency (T-RL orientation) vs wild-type transposon end (log2 (normalized fold change)); transposon end mutated: right end (5 bp flank + 75 bp right end); higher = more efficient transposition; conditions: with VchCAST RNA-guided transposition machinery (E. coli BL21(DE3) host, lacZ target)
Protocol: (§1)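 Pooled, barcoded VchCAST (Tn6677) mini-transposon donor libraries; each variable transposon-end sequence sits in a fixed pDonor mini-transposon context (10-bp barcode and cargo not included). Left- or right-end libraries were co-transformed with pEffector (TniQ-Cascade, TnsABC, lacZ crRNA, T7, 0.1 mM IPTG) into E. coli BL21(DE3) and grown 18 h at 37 C. T-LR and T-RL junction amplicons were sequenced; output/input barcode fold change was normalised to the mean of four wild-type barcodes and log2-transformed. Two biological replicates; zero-count/undetected variants carry floor values (-10 / -15), censored here. Barcode uncoupling by PCR recombination adds noise.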

[2] = variants of: B1; assay: relative integration efficiency (T-LR orientation) vs wild-type transposon end (log2 (normalized fold change)); transposon end mutated: right end (5 bp flank + 75 bp right end); higher = more efficient transposition; conditions: with VchCAST RNA-guided transposition machinery (E. coli BL21(DE3) host, lacZ target)
Protocol: as §1

## TAAATTGATATTGC T31A
[1]
  relative integration efficiency (log2): -0.436 ± 0.1
[2]
  relative integration efficiency (log2): 0.0674 ± 0.1

## TAAATTGATATTGC T31C
[1]
  relative integration efficiency (log2): -0.0667 ± 0.0077
[2]
  relative integration efficiency (log2): 0.344 ± 0.35

## TAAATTGATATTGC T31G
[1]
  relative integration efficiency (log2): -0.564 ± 0.13
[2]
  relative integration efficiency (log2): 0.2 ± 0.23

## TAAATTGATATTGC A22G
[1]
  relative integration efficiency (log2): -0.771 ± 0.018
[2]
  relative integration efficiency (log2): -1.09 ± 0.47

## TAAATTGATATTGC A22C
[1]
  relative integration efficiency (log2): -0.874 ± 0.074
[2]
  relative integration efficiency (log2): -1.72 ± 0.82

## TAAATTGATATTGC A22T
[1]
  relative integration efficiency (log2): -0.215 ± 0.042
[2]
  relative integration efficiency (log2): -0.148 ± 0.0031

## TAAATTGATATTGC G46C
[1]
  relative integration efficiency (log2): -0.936 ± 0.067
[2]
  relative integration efficiency (log2): -0.847 ± 0.31

## TAAATTGATATTGC G46A
[1]
  relative integration efficiency (log2): -0.369 ± 0.054
[2]
  relative integration efficiency (log2): -0.642 ± 0.19

## TAAATTGATATTGC G46T
[1]
  relative integration efficiency (log2): -0.423 ± 0.077
[2]
  relative integration efficiency (log2): -0.734 ± 0.14

## TAACGGTATATTGC
[1]
  relative integration efficiency (log2): -0.559 ± 0.17
[2]
  relative integration efficiency (log2): 2.2 ± 0.3

## TAAATTGATATTGC T6A
[1]
  relative integration efficiency (log2): -5.81 ± 0.51
[2]
  relative integration efficiency (log2): -5.94 ± 1.9

## TAAATTGATATTGC T6G
[1]
  relative integration efficiency (log2): -6.66 ± 0.074
[2]
  relative integration efficiency (log2): -5.28 ± 0.39

## TAAATTGATATTGC T6C
[1]
  relative integration efficiency (log2): -1.81 ± 0.2
[2]
  relative integration efficiency (log2): -2.11 ± 0.46

## TAAATTGATATTGC A56T
[1]
  relative integration efficiency (log2): -0.4 ± 0.052
[2]
  relative integration efficiency (log2): 0.0769 ± 0.005

## TAAATTGATATTGC A56G
[1]
  relative integration efficiency (log2): -0.248 ± 0.083
[2]
  relative integration efficiency (log2): 0.362 ± 0.33

## TAAATTGATATTGC A56C
[1]
  relative integration efficiency (log2): -0.0165 ± 0.22
[2]
  relative integration efficiency (log2): 0.317 ± 0.21

## TACCGGGATATTGC
[1]
  relative integration efficiency (log2): -0.561 ± 0.028
[2]
  relative integration efficiency (log2): 2.282 ± 0.0082

## TAAATTGATATTGC A49G
[1]
  relative integration efficiency (log2): -0.49 ± 0.084
[2]
  relative integration efficiency (log2): -0.155 ± 0.12

## TAAATTGATATTGC A49T
[1]
  relative integration efficiency (log2): -0.47 ± 0.16
[2]
  relative integration efficiency (log2): 0.117 ± 0.012

## TAAATTGATATTGC A49C
[1]
  relative integration efficiency (log2): -0.518 ± 0.15
[2]
  relative integration efficiency (log2): -0.614 ± 0.38

## TAAATTGATATTGC C34G
[1]
  relative integration efficiency (log2): -0.73 ± 0.11
[2]
  relative integration efficiency (log2): -0.479 ± 0.0065

## TAAATTGATATTGC C34T
[1]
  relative integration efficiency (log2): -1.32 ± 0.14
[2]
  relative integration efficiency (log2): -0.474 ± 0.43

## TAAATTGATATTGC C34A
[1]
  relative integration efficiency (log2): -0.0537 ± 0.0045
[2]
  relative integration efficiency (log2): 0.162 ± 0.16

## TAGATTGATATTGC
[1]
  relative integration efficiency (log2): -0.557 ± 0.12
[2]
  relative integration efficiency (log2): 1.925 ± 0.0098

## TAAATTGATATTGC C14G
[1]
  relative integration efficiency (log2): -0.477 ± 0.036
[2]
  relative integration efficiency (log2): -1.2 ± 0.21

## TAAATTGATATTGC C14T
[1]
  relative integration efficiency (log2): -0.00853 ± 0.13
[2]
  relative integration efficiency (log2): 0.0199 ± 0.32

## TAAATTGATATTGC C14A
[1]
  relative integration efficiency (log2): -0.119 ± 0.027
[2]
  relative integration efficiency (log2): -0.254 ± 0.16

## TAAATTGCGATTGC
[1]
  relative integration efficiency (log2): -0.463 ± 0.06
[2]
  relative integration efficiency (log2): 1.51 ± 0.028

## TAAATTGATTATGC
[1]
  relative integration efficiency (log2): -0.138 ± 0.008
[2]
  relative integration efficiency (log2): 0.414 ± 0.43

## TAATAACATATTGC
[1]
  relative integration efficiency (log2): -0.969 ± 0.16
[2]
  relative integration efficiency (log2): 2.203 ± 0.0027

## TAAATTGATATTGC A50G
[1]
  relative integration efficiency (log2): -0.0471 ± 0.15
[2]
  relative integration efficiency (log2): 0.0313 ± 0.15

## TAAATTGATATTGC A50C
[1]
  relative integration efficiency (log2): -0.321 ± 0.012
[2]
  relative integration efficiency (log2): -0.213 ± 0.17

## TAAATTGATATTGC A50T
[1]
  relative integration efficiency (log2): -0.455 ± 0.22
[2]
  relative integration efficiency (log2): -0.0702 ± 0.025

## TAAATTGATATTGC A58C
[1]
  relative integration efficiency (log2): -0.461 ± 0.11
[2]
  relative integration efficiency (log2): 1.05 ± 0.17

## TAAATTGATATTGC A58G
[1]
  relative integration efficiency (log2): -0.236 ± 0.0068
[2]
  relative integration efficiency (log2): 1.32 ± 0.19

## TAAATTGATATTGC A58T
[1]
  relative integration efficiency (log2): -0.281 ± 0.054
[2]
  relative integration efficiency (log2): 1.17 ± 0.41

## TACCTTGAAATTGC C59A
[1]
  relative integration efficiency (log2): -1.62 ± 0.24
[2]
  relative integration efficiency (log2): 1.94 ± 0.21

## TAAATTGATATTGC T9A
[1]
  relative integration efficiency (log2): -0.0594 ± 0.085
[2]
  relative integration efficiency (log2): -0.234 ± 0.3

## TAAATTGATATTGC T9G
[1]
  relative integration efficiency (log2): 0.104 ± 0.038
[2]
  relative integration efficiency (log2): 0.0503 ± 0.46

## TAAATTGATATTGC T9C
[1]
  relative integration efficiency (log2): 0.234 ± 0.012
[2]
  relative integration efficiency (log2): 0.331 ± 0.42

## TAAATTGTATATGC
[1]
  relative integration efficiency (log2): -0.247 ± 0.1
[2]
  relative integration efficiency (log2): 0.948 ± 0.27

## TAAATTGATATTGC C38A
[1]
  relative integration efficiency (log2): -0.117 ± 0.04
[2]
  relative integration efficiency (log2): -0.451 ± 0.24

## TAAATTGATATTGC C38T
[1]
  relative integration efficiency (log2): 0.335 ± 0.044
[2]
  relative integration efficiency (log2): -0.111 ± 0.49

## TAAATTGATATTGC C38G
[1]
  relative integration efficiency (log2): 0.03 ± 0.16
[2]
  relative integration efficiency (log2): -0.489 ± 0.06

## TAAATTGTTATTGC
[1]
  relative integration efficiency (log2): -0.347 ± 0.057
[2]
  relative integration efficiency (log2): 1.61 ± 0.16

## TAAATTGATATTGC A21C
[1]
  relative integration efficiency (log2): -0.283 ± 0.04
[2]
  relative integration efficiency (log2): -0.846 ± 0.23

## TAAATTGATATTGC A21T
[1]
  relative integration efficiency (log2): 0.0476 ± 0.12
[2]
  relative integration efficiency (log2): -0.217 ± 0.052

## TAAATTGATATTGC A21G
[1]
  relative integration efficiency (log2): -0.564 ± 0.14
[2]
  relative integration efficiency (log2): -1.31 ± 0.14

## TAAGTTGATATTTT C59A
[1]
  relative integration efficiency (log2): 0.0617 ± 0.048
[2]
  relative integration efficiency (log2): -0.156 ± 0.28

## TAAATTGATATTGC T80A
[1]
  relative integration efficiency (log2): 0.0921 ± 0.03
[2]
  relative integration efficiency (log2): 0.072 ± 0.48

## TAAATTGATATTGC T80C
[1]
  relative integration efficiency (log2): -0.0687 ± 0.062
[2]
  relative integration efficiency (log2): -0.0985 ± 0.41

## TAAATTGATATTGC T80G
[1]
  relative integration efficiency (log2): 0.183 ± 0.047
[2]
  relative integration efficiency (log2): 0.0082 ± 0.15

## TAAATTGATATTGC T32C
[1]
  relative integration efficiency (log2): -0.438 ± 0.11
[2]
  relative integration efficiency (log2): -0.169 ± 0.21

## TAAATTGATATTGC T32G
[1]
  relative integration efficiency (log2): -1.26 ± 0.063
[2]
  relative integration efficiency (log2): 0.729 ± 0.26

## TAAATTGATATTGC T32A
[1]
  relative integration efficiency (log2): 0.933 ± 0.11
[2]
  relative integration efficiency (log2): 0.96 ± 0.14

## TAACGTGATATTGC
[1]
  relative integration efficiency (log2): -0.0871 ± 0.004
[2]
  relative integration efficiency (log2): 0.67 ± 0.2

## TAAATTGATATTGC T20G
[1]
  relative integration efficiency (log2): -1.34 ± 0.03
[2]
  relative integration efficiency (log2): -1.12 ± 0.28

## TAAATTGATATTGC T20C
[1]
  relative integration efficiency (log2): -0.448 ± 0.19
[2]
  relative integration efficiency (log2): -0.577 ± 0.33

Reference: the supplement of paper PMC10201428
